Experimental data from patent US20100129344A1, “MEDICAL USES AND THERAPIES BASED UPON THE ACTION OF AZUROCIDIN ON IGFBP-1” (priority 2005, published 2010).

Columns and labels:
[1] = test system: monocyte; details: cited from earlier work
[2] = target: T1, IGFBP-1 (Homo sapiens, UniProt P08833); experiment: Azurocidin-dependent IGFBP-1 protease activity (SDS-PAGE, ECL or silver staining); assay type: biochemical
T1 construct: purchased Kabi Pharmacia (Sweden), donated
T1 sequence (P08833 26-259): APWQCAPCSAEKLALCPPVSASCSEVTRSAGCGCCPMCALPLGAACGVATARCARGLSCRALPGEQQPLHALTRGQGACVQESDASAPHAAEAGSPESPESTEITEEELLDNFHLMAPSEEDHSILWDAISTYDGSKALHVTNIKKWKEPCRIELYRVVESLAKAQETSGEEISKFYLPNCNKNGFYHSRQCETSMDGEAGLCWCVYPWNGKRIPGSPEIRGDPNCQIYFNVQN
Protocol: Recombinant phosphorylated IGFBP-1 was used as substrate and incubations were carried out under neutral conditions for 2 h at 37 C. IGFBP-1 fragments were separated on SDS-PAGE, and detected by ECL as described in the methods. Panel A: Incubations with 0.25 μL eluate (HE) from heparin affinity chromatography (50 μl urine equiv.) in the presence and absence of anti-azurocidin antibody; and 1 μl HE of the loading material (L), and the flow through after affinity chromatography on protein G columns without (G) and with bound anti-chymase (C) or anti-azurocidin (A) antibodies. Panel B: Incubations in the presence and absence of 25 ng anti-azurocidin antibody with increasing volumes of white cell extract from the individual with a specific IGFBP-1 protease in urine compared to the white cell extract pooled from 6 healthy subjects;
Recombinant IGFBP-1 was incubated with the eluate from heparin affinity chromatography (HE) with a ratio of azurocidin:BP-1 of 1:3,500. After the times indicated, proteins were detected by silver staining after SDS-PAGE;
Gels were fixed, dried and analysed with the Fuji PhosphoImage program (Fuji Co., Stockholm, Sweden). Biotinylated IGFBP-1 and its fragments were separated on 14% SDS-PAGE under reducing conditions, transferred to PVDF (Biorad, Sundbyberg, Sweden), incubated with neutravidin-horseradish peroxidase (Pierce Biotechnology Inc, Rochester, Ill.) and detected by ECL (Amersham Biosciences, Uppsala, Sweden). Silver staining of proteins and fragments was performed after denaturing 12% PAGE under reducing conditions (SilverQuest and NuPAGE, Invitrogen, Stockholm, Sweden).
Heparin affinity chromatography was carried out in batches using heparin-agarose gel (Pharmacia). Urine was diluted 1:5 in 10 mM sodium phosphate, with 0.25 M NaCl buffer, pH 7 and incubated with gel for 30 min at 4 C. The gel was transferred to a column and washed with 10 times the gel volume of buffer. Heparin binding proteins were eluted in loading buffer containing 2M NaCl and the eluate was desalted, concentrated using a 10 kDa spin column and stored at −80 C. Concentrated material derived from 700 ml urine were applied to C4 reverse-phase HPLC, in 0.1% TFA on an acetonitrile gradient of 0-100%. Immunoaffinity chromatography was performed using monoclonal anti-azurocidin antibody attached to protein G Sepharose (Sigma-Aldrich, Sweden). In brief, antibody bound gel was incubated with the eluate from heparin affinity chromatography for 2 h at 22 C, and transferred to a Bio-Spin chromatography column (BioRad). The flow-through was collected for analysis of protease activity. As controls, an additional column was prepared with a monoclonal antibody against human mast cell chymase and a second column with no bound antibody.

[3] = pH increased from 5.5 to 6.5; cited from earlier work
[4] = target: IGF-II (Homo sapiens, UniProt P01344); details: IGFBP-1 purified from amniotic fluid; cited from earlier work
[5] = target: IGF-I (Homo sapiens, UniProt P05019); details: IGFBP-1 purified from amniotic fluid; cited from earlier work
IGF-I, sequence (P05019 49-118): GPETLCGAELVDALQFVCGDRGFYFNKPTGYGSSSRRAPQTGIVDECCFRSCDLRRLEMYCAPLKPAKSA

IGF-II, sequence (P01344 25-91): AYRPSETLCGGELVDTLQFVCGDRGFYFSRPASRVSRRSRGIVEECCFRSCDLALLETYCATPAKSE

B1: azurocidin: protein from granules of human polymorphonuclear leukocytes, SEQ ID NO. 1; identified here as IGFBP-1 specific protease (protein, listed as Homo sapiens)
chain: IVGGRKARPRQFPFLASIQNQGRHFCGGALIHARFVMTAASCFQSQNPGVSTVVLGAYDLRRRERQSRQTFSISSMSENGYDPQQNLNDLMLLQLDREANLTSSVTILPLPLQNATVEAGTRCQVAGWGSQRSGGRLSRFPRFVNVTVTPEDQCRPNNVCTGVLTRRGGICNGDGGTPLVCEGLAHGVASFSLGPCGRGPDFFTRVALFRDWIDGVLNNPGPGPA
Q: For B1, which “concentration level required for monocyte chemotaxis” value [1] is on record?
A: Its value is “micromolar”.

Q: What about the “pH above which action on IGFBP-1 is greater” value [2] of the same molecule?
A: Its value is greater than 6.

Q: What about the “effect on IGFBP-1 (proteolysis) after HPLC-passage” value ([2]; after reverse-phase HPLC) of the same molecule?
A: The value was “without effect”.

Q: What about the “time until proteolysis of phosphorylated IGFBP-1 is seen” value ([2]; protease:substrate molar ratio 1:3,500) of the same molecule?
A: Its value is “within minutes”.

Q: What about the “concentration at which proteolytic effect on IGFBP-1 is noticeable” value ([2]; purified preparation) of the same molecule?
A: Its value is “nanomolar”.

Q: What about the “decrease of bactericidal activity” value [3] of the same molecule?
A: The value was “at least 50%”.

B2: IGFBP-1 purified from amniotic fluid: 28 kDa IGF-binding protein purified from human amniotic fluid (protein, UniProt P08833 26-259, looked up)
Insulin-like growth …: T1 sequence (P08833 26-259)
Q: Which results are given for B2?
A: association constant for IGF-II [4]: ~3.2e+09 L/mol; association constant for IGF-I [5]: approximately 6.6×10^9 L/mol
